Results from publication PMC2863221 (The Journal of Biological Chemistry, 2010).

Molecular target: the molecule itself
Test: SDS-PAGE and Western blot

B1: HA-tagged rat syndecan-4 AAA mutant (serines 44, 65 and 67 mutated to alanine; no glycosaminoglycan chains) (receptor, UniProt P34901 24-202, looked up)
chain: ESIRETEVIDPQDLLEGRYFAGALPDDEDAGGLEQDSDFELAGAGDLDDTEEPRTFPEVISPLVPLDNHIPENAQPGIRVPSEPKELEENEVIPKRVPSDVGDDDVSNKVSMSSTSQGSNIFERTEVLAALIVGGVVGILFAVFLILLLVYRMKKKDEGSYDLGKKPIYKKAPTNEFYA
  stoichiometry N: 2
